Experimental data as given in the supplement of paper PMC5998384.

What was measured:
HeLa Kyoto [1] = assay: solubility change mitosis vs G1/S (difference of NP-40 vs SDS log2 ratios) (log2 ratio difference); higher = more soluble in mitosis
HeLa Kyoto [2] = assay: solubility in G1/S (NP-40 vs SDS abundance) (log2 ratio); higher = more soluble; conditions: cell cycle stage: G1/S
HeLa Kyoto [3] = assay: thermal stability score vs G1/S (z-score of summed log2 fold changes over temperatures); higher = more thermally stable than in G1/S
HeLa Kyoto [4] = assay: melting temperature (median over replicates), in situ; higher = more thermally stable
[5] = cell cycle stage: early G1 (4.5 h after nocodazole release)
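Throughout, for melting temperature (median over replicates), in situ: HeLa Kyoto cells synchronized by double thymidine or nocodazole block, proteins quantified by TMT10plex mass spectrometry, three independent biological replicates.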
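Throughout, for solubility change mitosis vs G1/S (difference of NP-40 vs SDS log2 ratios): synchronized HeLa Kyoto cells (double thymidine block for G1/S, nocodazole release for mitosis), protein amounts in NP-40 versus SDS lysates quantified by mass spectrometry, three biological replicates.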
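Throughout, for solubility in G1/S (NP-40 vs SDS abundance): HeLa Kyoto cells arrested at G1/S by double thymidine block, proteins quantified by TMT10plex mass spectrometry in mild NP-40 versus SDS extracts, three biological replicates.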
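Throughout, for thermal stability score vs G1/S (z-score of summed log2 fold changes over temperatures): synchronized HeLa Kyoto cells, proteins quantified by TMT10plex mass spectrometry, three biological replicates, mitosis taken 0.5 h after nocodazole release, G1/S directly after double thymidine block.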

KCTD3, sequence (chain, as listed by the source): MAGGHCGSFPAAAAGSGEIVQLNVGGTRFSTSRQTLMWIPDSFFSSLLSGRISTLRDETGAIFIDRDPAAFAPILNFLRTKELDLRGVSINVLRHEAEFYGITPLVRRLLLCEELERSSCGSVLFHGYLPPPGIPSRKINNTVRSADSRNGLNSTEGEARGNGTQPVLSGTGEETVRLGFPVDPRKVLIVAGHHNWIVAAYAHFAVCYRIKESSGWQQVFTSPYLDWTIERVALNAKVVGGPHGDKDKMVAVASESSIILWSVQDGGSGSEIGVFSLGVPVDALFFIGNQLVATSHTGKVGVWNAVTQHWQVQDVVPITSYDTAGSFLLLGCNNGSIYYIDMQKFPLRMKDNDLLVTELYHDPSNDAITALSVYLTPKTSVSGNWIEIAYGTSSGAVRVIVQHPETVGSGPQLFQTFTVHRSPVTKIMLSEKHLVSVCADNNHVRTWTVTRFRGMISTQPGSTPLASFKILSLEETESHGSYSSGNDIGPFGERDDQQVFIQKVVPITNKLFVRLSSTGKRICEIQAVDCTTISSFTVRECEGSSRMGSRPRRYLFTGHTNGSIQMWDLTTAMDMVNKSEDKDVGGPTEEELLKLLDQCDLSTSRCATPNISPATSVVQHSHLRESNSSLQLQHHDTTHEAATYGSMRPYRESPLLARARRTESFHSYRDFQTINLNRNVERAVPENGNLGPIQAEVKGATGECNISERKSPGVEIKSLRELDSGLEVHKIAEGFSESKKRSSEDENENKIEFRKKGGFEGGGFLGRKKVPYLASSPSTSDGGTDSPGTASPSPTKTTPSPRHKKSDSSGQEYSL

MASPSLERPEKGAGKSEFRNQKPKPENQDESELLTVPDGWKEPAFSKEDNPRGLLEESSFATLFPKYREAYLKECWPLVQKALNEHHVNATLDLIEGSMTVCTTKKTFDPYIIIRARDLIKLLARSVSFEQAVRILQDDVACDIIKIGSLVRNKERFVKRRQRLIGPKGSTLKALELLTNCYIMVQGNTVSAIGPFSGLKEVRKVVLDTMKNIHPIYNIKSLMIKRELAKDSELRSQSWERFLPQFKHKNVNKRKEPKKKTVKKEYTPFPPPQPESQIDKELASGEYFLKANQKKRQKMEAIKAKQAEAISKRQEERNKAFIPPKEKPIVKPKEASTETKIDVASIKEKVKKAKNKKLGALTAEEIALKMEADEKKKKKKK [KRR1]
solubility change mitosis (log2) (HeLa Kyoto [1]): 0.79 | solubility in G1/S (log2) (HeLa Kyoto [2]): -1.22 | thermal stability score (HeLa Kyoto [3]; [5]): 3.32 | thermal stability score (HeLa Kyoto [3]; cell cycle stage: mitosis): 4.5 | melting temperature (HeLa Kyoto [4]; cell cycle stage: G1/S): 51.3 °C | melting temperature (HeLa Kyoto [4]; cell cycle stage: mitosis): 50.1 °C

MVCGGFACSKNCLCALNLLYTLVSLLLIGIAAWGIGFGLISSLRVVGVVIAVGIFLFLIALVGLIGAVKHHQVLLFFYMIILLLVFIVQFSVSCACLALNQEQQGQLLEVGWNNTASARNDIQRNLNCCGFRSVNPNDTCLASCVKSDHSCSPCAPIIGEYAGEVLRFVGGIGLFFSFTEILGVWLTYRYRNQKDPRANPSAFL [TSPAN13]
solubility change mitosis (log2) (HeLa Kyoto [1]): -0.273 | solubility in G1/S (log2) (HeLa Kyoto [2]): 0.0697 | thermal stability score (HeLa Kyoto [3]; [5]): -0.55 | thermal stability score (HeLa Kyoto [3]; cell cycle stage: mitosis): -1.07 | melting temperature (HeLa Kyoto [4]; cell cycle stage: G1/S): 57.7 °C | melting temperature (HeLa Kyoto [4]; cell cycle stage: mitosis): 57.6 °C

MRVAALISGGKDSCYNMMQCIAAGHQIVALANLRPAENQVGSDELDSYMYQTVGHHAIDLYAEAMALPLYRRTIRGRSLDTRQVYTKCEGDEVEDLYELLKLVKEKEEVEGISVGAILSDYQRIRVENVCKRLNLQPLAYLWQRNQEDLLREMISSNIQAMIIKVAALGLDPDKHLGKTLDQMEPYLIELSKKYGVHVCGEGGEYETFTLDCPLFKKKIIVDSSEVVIHSADAFAPVAYLRFLELHLEDKVSSVPDNYRTSNYIYNF [DPH6]
solubility change mitosis (log2) (HeLa Kyoto [1]): -0.0821 | solubility in G1/S (log2) (HeLa Kyoto [2]): 0.152 | thermal stability score (HeLa Kyoto [3]; [5]): -0.982 | thermal stability score (HeLa Kyoto [3]; cell cycle stage: mitosis): 0.029 | melting temperature (HeLa Kyoto [4]; cell cycle stage: G1/S): 50.2 °C | melting temperature (HeLa Kyoto [4]; cell cycle stage: mitosis): 50.6 °C

GTF3C1
solubility change mitosis (log2) (HeLa Kyoto [1]): -0.00776 | solubility in G1/S (log2) (HeLa Kyoto [2]): -0.378 | thermal stability score (HeLa Kyoto [3]; [5]): 1.22 | thermal stability score (HeLa Kyoto [3]; cell cycle stage: mitosis): 3.47 | melting temperature (HeLa Kyoto [4]; cell cycle stage: G1/S): 47.5 °C | melting temperature (HeLa Kyoto [4]; cell cycle stage: mitosis): 49.4 °C

MGDPSKQDILTIFKRLRSVPTNKVCFDCGAKNPSWASITYGVFLCIDCSGSHRSLGVHLSFIRSTELDSNWSWFQLRCMQVGGNASASSFFHQHGCSTNDTNAKYNSRAAQLYREKIKSLASQATRKHGTDLWLDSCVVPPLSPPPKEEDFFASHVSPEVSDTAWASAIAEPSSLTSRPVETTLENNEGGQEQGPSVEGLNVPTKATLEVSSIIKKKPNQAKKGLGAKKGSLGAQKLANTCFNEIEKQAQAADKMKEQEDLAKVVSKEESIVSSLRLAYKDLEIQMKKDEKMNISGKKNVDSDRLGMGFGNCRSVISHSVTSDMQTIEQESPIMAKPRKKYNDDSDDSYFTSSSSYFDEPVELRSSSFSSWDDSSDSYWKKETSKDTETVLKTTGYSDRPTARRKPDYEPVENTDEAQKKFGNVKAISSDMYFGRQSQADYETRARLERLSASSSISSADLFEEPRKQPAGNYSLSSVLPNAPDMAQFKQGVRSVAGKLSVFANGVVTSIQDRYGS [ARFGAP3]
solubility change mitosis (log2) (HeLa Kyoto [1]): -0.125 | solubility in G1/S (log2) (HeLa Kyoto [2]): 0.135 | thermal stability score (HeLa Kyoto [3]; [5]): -0.314 | thermal stability score (HeLa Kyoto [3]; cell cycle stage: mitosis): 0.332 | melting temperature (HeLa Kyoto [4]; cell cycle stage: G1/S): 51.3 °C | melting temperature (HeLa Kyoto [4]; cell cycle stage: mitosis): 51.4 °C

KCTD3
solubility change mitosis (log2) (HeLa Kyoto [1]): 0.0231 | solubility in G1/S (log2) (HeLa Kyoto [2]): -0.0736 | thermal stability score (HeLa Kyoto [3]; [5]): -2.92 | thermal stability score (HeLa Kyoto [3]; cell cycle stage: mitosis): -4.02 | melting temperature (HeLa Kyoto [4]; cell cycle stage: G1/S): 57.6 °C | melting temperature (HeLa Kyoto [4]; cell cycle stage: mitosis): 56.7 °C

MATRQRESSITSCCSTSSCDADDEGVRGTCEDASLCKRFAVSIGYWHDPYIQHFVRLSKERKAPEINRGYFARVHGVSQLIKAFLRKTECHCQIVNLGAGMDTTFWRLKDEDLLPSKYFEVDFPMIVTRKLHSIKCKPPLSSPILELHSEDTLQMDGHILDSKRYAVIGADLRDLSELEEKLKKCNMNTQLPTLLIAECVLVYMTPEQSANLLKWAANSFERAMFINYEQVNMGDRFGQIMIENLRRRQCDLAGVETCKSLESQKERLLSNGWETASAVDMMELYNRLPRAEVSRIESLEFLDEMELLEQLMRHYCLCWATKGGNELGLKEITY [LCMT1]
solubility change mitosis (log2) (HeLa Kyoto [1]): -0.123 | solubility in G1/S (log2) (HeLa Kyoto [2]): 0.181 | thermal stability score (HeLa Kyoto [3]; [5]): 0.211 | thermal stability score (HeLa Kyoto [3]; cell cycle stage: mitosis): 0.493 | melting temperature (HeLa Kyoto [4]; cell cycle stage: G1/S): 52.1 °C | melting temperature (HeLa Kyoto [4]; cell cycle stage: mitosis): 53.5 °C

MTTSHMNGHVTEESDSEVKNVDLASPEEHQKHREMAVDCPGDLGTRMMPIRRSAQLERIRQQQEDMRRRREEEGKKQELDLNSSMRLKKLAQIPPKTGIDNPMFDTEEGIVLESPHYAVKILEIEDLFSSLKHIQHTLVDSQSQEDISLLLQLVQNKDFQNAFKIHNAITVHMNKASPPFPLISNAQDLAQEVQTVLKPVHHKEGQELTALLNTPHIQALLLAHDKVAEQEMQLEPITDERVYESIGQYGGETVKIVRIEKARDIPLGATVRNEMDSVIISRIVKGGAAEKSGLLHEGDEVLEINGIEIRGKDVNEVFDLLSDMHGTLTFVLIPSQQIKPPPAKETVIHVKAHFDYDPSDDPYVPCRELGLSFQKGDILHVISQEDPNWWQAYREGDEDNQPLAGLVPGKSFQQQREAMKQTIEEDKEPEKSGKLWCAKKNKKKRKKVLYNANKNDDYDNEEILTYEEMSLYHQPANRKRPIILIGPQNCGQNELRQRLMNKEKDRFASAVPHTTRSRRDQEVAGRDYHFVSRQAFEADIAAGKFIEHGEFEKNLYGTSIDSVRQVINSGKICLLSLRTQSLKTLRNSDLKPYIIFIAPPSQERLRALLAKEGKNPKPEELREIIEKTREMEQNNGHYFDTAIVNSDLDKAYQELLRLINKLDTEPQWVPSTWLR [MPP5]
solubility change mitosis (log2) (HeLa Kyoto [1]): 0.00906 | solubility in G1/S (log2) (HeLa Kyoto [2]): 0.0594 | thermal stability score (HeLa Kyoto [3]; [5]): 0.62 | thermal stability score (HeLa Kyoto [3]; cell cycle stage: mitosis): 2.56 | melting temperature (HeLa Kyoto [4]; cell cycle stage: G1/S): 48 °C | melting temperature (HeLa Kyoto [4]; cell cycle stage: mitosis): 50.7 °C

MVLLKEYRVILPVSVDEYQVGQLYSVAEASKNETGGGEGVEVLVNEPYEKDGEKGQYTHKIYHLQSKVPTFVRMLAPEGALNIHEKAWNAYPYCRTVITNEYMKEDFLIKIETWHKPDLGTQENVHKLEPEAWKHVEAVYIDIADRSQVLSKDYKAEEDPAKFKSIKTGRGPLGPNWKQELVNQKDCPYMCAYKLVTVKFKWWGLQNKVENFIHKQERRLFTNFHRQLFCWLDKWVDLTMDDIRRMEEETKRQLDEMRQKDPVKGMTADD [PITPNA]
solubility change mitosis (log2) (HeLa Kyoto [1]): -0.0595 | solubility in G1/S (log2) (HeLa Kyoto [2]): 0.15 | thermal stability score (HeLa Kyoto [3]; [5]): -1.26 | thermal stability score (HeLa Kyoto [3]; cell cycle stage: mitosis): -1.48 | melting temperature (HeLa Kyoto [4]; cell cycle stage: G1/S): 54.9 °C | melting temperature (HeLa Kyoto [4]; cell cycle stage: mitosis): 55.5 °C

MSGGGPSGGGPGGSGRARTSSFAEPGGGGGGGGGGPGGSASGPGGTGGGKASVGAMGGGVGASSSGGGPGGSGGGGSGGPGAGTSFPPPGVKLGRDSGKVTTVVATLGQGPERSQEVAYTDIKVIGNGSFGVVYQARLAETRELVAIKKVLQDKRFKNRELQIMRKLDHCNIVRLRYFFYSSGEKKDELYLNLVLEYVPETVYRVARHFTKAKLTIPILYVKVYMYQLFRSLAYIHSQGVCHRDIKPQNLLVDPDTAVLKLCDFGSAKQLVRGEPNVSYICSRYYRAPELIFGATDYTSSIDVWSAGCVLAELLLGQPIFPGDSGVDQLVEIIKVLGTPTREQIREMNPNYTEFKFPQIKAHPWTKVFKSRTPPEAIALCSSLLEYTPSSRLSPLEACAHSFFDELRCLGTQLPNNRPLPPLFNFSAGELSIQPSLNAILIPPHLRSPAGTTTLTPSSQALTETPTSSDWQSTDATPTLTNSS [GSK3A]
solubility change mitosis (log2) (HeLa Kyoto [1]): -0.0272 | solubility in G1/S (log2) (HeLa Kyoto [2]): 0.181 | thermal stability score (HeLa Kyoto [3]; [5]): -1 | thermal stability score (HeLa Kyoto [3]; cell cycle stage: mitosis): -0.972 | melting temperature (HeLa Kyoto [4]; cell cycle stage: G1/S): 52.3 °C | melting temperature (HeLa Kyoto [4]; cell cycle stage: mitosis): 52.7 °C

MAPGVARGPTPYWRLRLGGAALLLLLIPVAAAQEPPGAACSQNTNKTCEECLKNVSCLWCNTNKACLDYPVTSVLPPASLCKLSSARWGVCWVNFEALIITMSVVGGTLLLGIAICCCCCCRRKRSRKPDRSEEKAMREREERRIRQEERRAEMKTRHDEIRKKYGLFKEENPYARFENN [PTTG1IP]
solubility change mitosis (log2) (HeLa Kyoto [1]): -0.143 | solubility in G1/S (log2) (HeLa Kyoto [2]): -0.362 | thermal stability score (HeLa Kyoto [3]; [5]): -5.97 | thermal stability score (HeLa Kyoto [3]; cell cycle stage: mitosis): -6.48 | melting temperature (HeLa Kyoto [4]; cell cycle stage: G1/S): 56.3 °C

MERAAPSRRVPLPLLLLGGLALLAAGVDADVLLEACCADGHRMATHQKDCSLPYATESKECRMVQEQCCHSQLEELHCATGISLANEQDRCATPHGDNASLEATFVKRCCHCCLLGRAAQAQGQSCEYSLMVGYQCGQVFQACCVKSQETGDLDVGGLQETDKIIEVEEEQEDPYLNDRCRGGGPCKQQCRDTGDEVVCSCFVGYQLLSDGVSCEDVNECITGSHSCRLGESCINTVGSFRCQRDSSCGTGYELTEDNSCKDIDECESGIHNCLPDFICQNTLGSFRCRPKLQCKSGFIQDALGNCIDINECLSISAPCPIGHTCINTEGSYTCQKNVPNCGRGYHLNEEGTRCVDVDECAPPAEPCGKGHRCVNSPGSFRCECKTGYYFDGISRMCVDVNECQRYPGRLCGHKCENTLGSYLCSCSVGFRLSVDGRSCEDINECSSSPCSQECANVYGSYQCYCRRGYQLSDVDGVTCEDIDECALPTGGHICSYRCINIPGSFQCSCPSSGYRLAPNGRNCQDIDECVTGIHNCSINETCFNIQGGFRCLAFECPENYRRSAATLQQEKTDTVRCIKSCRPNDVTCVFDPVHTISHTVISLPTFREFTRPEEIIFLRAITPPHPASQANIIFDITEGNLRDSFDIIKRYMDGMTVGVVRQVRPIVGPFHAVLKLEMNYVVGGVVSHRNVVNVHIFVSEYWF [FBLN1]
solubility change mitosis (log2) (HeLa Kyoto [1]): -0.045 | solubility in G1/S (log2) (HeLa Kyoto [2]): -0.102 | thermal stability score (HeLa Kyoto [3]; [5]): 1.49 | thermal stability score (HeLa Kyoto [3]; cell cycle stage: mitosis): 0.0681 | melting temperature (HeLa Kyoto [4]; cell cycle stage: G1/S): 54 °C | melting temperature (HeLa Kyoto [4]; cell cycle stage: mitosis): 55.4 °C
